In the supplement of paper PMC7877785:
± gives the uncertainty stated by the source.

Assay: self-splicing fitness, log relative to wild type (ln ratio); higher = more splicing; Tetrahymena group I intron in knt gene, E. coli kanamycin selection, DiMSum; sequences stand for … in CUCUCU…GGAGGGAAAAGUUAUCAGGCAUGCACCUGGUAGCUAGUCUUUAAACCAAUAGAUUGCAUCGGUUUAAAAGGCAAGACCGUCAAAUUGCGGGAAAGGGGUCAACAGCCGUUCAGUACCAAGUCUCAGGGGAAACUUUGAGAUGGCCUUGCAAAGGGUAUGGUAAUAAGCUGACGGACAUGGUCCUAACCACGCAGCCAAGUCCUAAGUCAACAGAUCUUCUGUUGAUAUGGAUGCAGUUCACAGACUAAAUGUCGGUCGGGGAAGAUGUAUUCUUCUCAUAAGAUAUAGUCGGACCUCUCCUUAAUGGGAGCUAGCGGAUGAAGUGAUGCAACACUGGAGCCGCUGGGAACUAAUUUGUAUGCGAAAGUAUAUUGAUUAGUUUUGGAGUACUCGUGGUCG
In short: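 Colonies from six replicate transformations of E. coli BL21(DE3) were pooled and amplicon-sequenced on an Illumina HiSeq 2500. The library placed an intron with all eight P1ex-region nucleotides randomised inside the knt kanamycin-resistance gene on pET-22b(+), and cells grew overnight at 37°C or 30°C on LB agar with or without 25 μg/mL kanamycin (plus 100 μg/mL carbenicillin, 50 μM IPTG, 0.2% rhamnose). Fitness is the DiMSum error-weighted combination of wild-type-normalised replicate fold changes, kanamycin versus none.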

| Sequence | self-splicing fitness (ln) (30 °C) | self-splicing fitness (ln) (37 °C) |
| --- | --- | --- |
| UUGAAGCAAUAUUACGUCGG | 0.235 ± 0.075 | -0.024 ± 0.084 |
| UUGAAGCAAUAUUACGUGAC | -3.1 ± 0.3 | -1.29 ± 0.24 |
| UUGAAGCAAUAUUACGUUGA | -0.405 ± 0.093 | -0.404 ± 0.11 |
| UUGCAGCAAUAUUACGAAAG |  | -1.5 ± 0.35 |
| UUGCAGCAAUAUUACGACGG | -0.213 ± 0.076 | 0.395 ± 0.11 |
| UUGCAGCAAUAUUACGAGCA | -2.35 ± 0.17 | -0.7 ± 0.11 |
| UUGCAGCAAUAUUACGAGUC | -3.64 ± 0.2 | -2.64 ± 0.28 |
| UUGCAGCAAUAUUACGAUGA | -0.402 ± 0.097 | 0.367 ± 0.12 |
| UUGCAGCAAUAUUACGCACU | -1.6 ± 0.13 | -1.15 ± 0.13 |
| UUGCAGCAAUAUUACGCAUG | -2.52 ± 0.13 | -2.99 ± 0.19 |
| UUGCAGCAAUAUUACGCGUC | -3.44 ± 0.15 | -1.61 ± 0.14 |
| UUGCAGCAAUAUUACGCUAA | -1.12 ± 0.16 | -0.551 ± 0.16 |
| UUGCAGCAAUAUUACGCUUC | -3.76 ± 0.35 | -2.76 ± 0.25 |
| UUGCAGCAAUAUUACGGACG | -0.806 ± 0.17 | -1.1 ± 0.23 |
| UUGCAGCAAUAUUACGGAUC | -3.22 ± 0.27 | -2.93 ± 0.37 |
| UUGCAGCAAUAUUACGGCAG | -0.754 ± 0.14 | -1.27 ± 0.17 |
| UUGCAGCAAUAUUACGGCGG | -1.7 ± 0.081 | -1.01 ± 0.11 |
| UUGCAGCAAUAUUACGGCUA | 0.128 ± 0.045 | 0.358 ± 0.06 |
| UUGCAGCAAUAUUACGGGAU | -3.42 ± 0.17 | -1.68 ± 0.12 |
| UUGCAGCAAUAUUACGGGUC | -2.73 ± 0.21 | -1.7 ± 0.22 |
| UUGCAGCAAUAUUACGGUAC | -3.25 ± 0.33 | -0.374 ± 0.18 |
| UUGCAGCAAUAUUACGGUGG | -1.79 ± 0.1 | -0.742 ± 0.1 |
| UUGCAGCAAUAUUACGUAAC | -3.38 ± 0.16 | -2.81 ± 0.21 |
| UUGCAGCAAUAUUACGUAAG | -0.486 ± 0.089 | 0.527 ± 0.11 |
| UUGCAGCAAUAUUACGUAGU | -3.7 ± 0.22 | -2.51 ± 0.28 |
| UUGCAGCAAUAUUACGUCAU | -2.15 ± 0.098 | -1.13 ± 0.1 |
| UUGCAGCAAUAUUACGUCUU | -0.0818 ± 0.069 | 0.289 ± 0.077 |

| Sequence | self-splicing fitness (ln) (30 °C) | self-splicing fitness (ln) (37 °C) |
| --- | --- | --- |
| UUGCAGCAAUAUUACGUGUU | -3.1 ± 0.12 | -2.47 ± 0.13 |
| UUGCAGCAAUAUUACGUUAG | -1.22 ± 0.053 | -0.899 ± 0.085 |
| UUGCAGCAAUAUUACGUUAU | -3.03 ± 0.22 | -2.6 ± 0.21 |
| UUGCAGCAAUAUUACGUUGC | -1.47 ± 0.1 | -2.86 ± 0.21 |
| UUGGAGCAAUAUUACGACAA | -1.07 ± 0.16 | -0.647 ± 0.18 |
| UUGGAGCAAUAUUACGAGGU | -2.02 ± 0.47 |  |
| UUGGAGCAAUAUUACGCAGC | -3.49 ± 0.49 | -1.51 ± 0.36 |
| UUGGAGCAAUAUUACGCCAG | -3.07 ± 0.26 | -2.07 ± 0.37 |
| UUGGAGCAAUAUUACGCCCA | -2.38 ± 0.23 | -0.932 ± 0.4 |
| UUGGAGCAAUAUUACGCCUA | -1.39 ± 0.2 | -0.365 ± 0.19 |
| UUGGAGCAAUAUUACGCGAG | -1.15 ± 0.13 | -1.8 ± 0.21 |
| UUGGAGCAAUAUUACGCGCA | -2.48 ± 0.29 | -1.09 ± 0.29 |
| UUGGAGCAAUAUUACGCGGG | -3.26 ± 0.19 | -0.733 ± 0.15 |
| UUGGAGCAAUAUUACGCUAU | -2.08 ± 0.44 | -1.93 ± 0.28 |
| UUGGAGCAAUAUUACGGAGA | -2.59 ± 0.37 | -1.08 ± 0.23 |
| UUGGAGCAAUAUUACGGCGG | -2.99 ± 0.33 | -1.88 ± 0.22 |
| UUGGAGCAAUAUUACGGGAA | -3.64 ± 0.38 | -0.82 ± 0.17 |
| UUGGAGCAAUAUUACGGGGA | -3.14 ± 0.28 | -2.72 ± 0.31 |
| UUGGAGCAAUAUUACGGGUG |  | -1.44 ± 0.23 |
| UUGGAGCAAUAUUACGGUCC | -3.7 ± 0.34 |  |
| UUGGAGCAAUAUUACGGUGC | -1.64 ± 0.31 |  |
| UUGGAGCAAUAUUACGUAGU | -1.95 ± 0.25 | -2.6 ± 0.49 |
| UUGGAGCAAUAUUACGUGCC | -3.24 ± 0.32 | -2.74 ± 0.36 |
| UUGGAGCAAUAUUACGUGGG | -2.17 ± 0.33 |  |
| UUGUAGCAAUAUUACGAAGA | -3.14 ± 0.33 |  |
| UUGUAGCAAUAUUACGAAUU | -1.53 ± 0.34 | -1.47 ± 0.38 |
| UUGUAGCAAUAUUACGACAC | -1.44 ± 0.22 | -1.48 ± 0.32 |

| Sequence | self-splicing fitness (ln) (30 °C) | self-splicing fitness (ln) (37 °C) |
| --- | --- | --- |
| UUGUAGCAAUAUUACGACGG | -0.599 ± 0.16 | -1.63 ± 0.17 |
| UUGUAGCAAUAUUACGAGAA | -1.54 ± 0.3 | -1.42 ± 0.3 |
| UUGUAGCAAUAUUACGAGAG | -2.07 ± 0.3 |  |
| UUGUAGCAAUAUUACGAGAU | -2.41 ± 0.33 | -2.32 ± 0.31 |
| UUGUAGCAAUAUUACGAGCC | -1.8 ± 0.27 | -1.78 ± 0.34 |
| UUGUAGCAAUAUUACGAGGG |  | -1.87 ± 0.4 |
| UUGUAGCAAUAUUACGAUCA | -0.608 ± 0.19 | -0.00925 ± 0.14 |
| UUGUAGCAAUAUUACGCCGA | -0.677 ± 0.23 | -0.628 ± 0.24 |
| UUGUAGCAAUAUUACGCCGG | -0.988 ± 0.16 | -0.179 ± 0.27 |
| UUGUAGCAAUAUUACGGAAA | -2.55 ± 0.39 | -1.2 ± 0.22 |
| UUGUAGCAAUAUUACGGCAA | -0.208 ± 0.12 | -0.27 ± 0.16 |
| UUGUAGCAAUAUUACGGCUA |  | 0.21 ± 0.5 |
| UUGUAGCAAUAUUACGGCUG | -2.35 ± 0.23 | -0.373 ± 0.22 |
| UUGUAGCAAUAUUACGGGAG |  | -2.84 ± 0.4 |
| UUGUAGCAAUAUUACGGUGA | -1.11 ± 0.093 | -0.318 ± 0.097 |
| UUGUAGCAAUAUUACGGUUU | -3.53 ± 0.24 | -1.79 ± 0.17 |
| UUGUAGCAAUAUUACGUACC | -2.08 ± 0.16 | -1.29 ± 0.17 |
| UUGUAGCAAUAUUACGUAGA | -2.75 ± 0.13 | -1.23 ± 0.12 |
| UUGUAGCAAUAUUACGUCUA | -0.856 ± 0.086 | -0.738 ± 0.11 |
| UUGUAGCAAUAUUACGUCUC | -3.54 ± 0.17 | -1.75 ± 0.18 |
| UUGUAGCAAUAUUACGUGAA | -1.87 ± 0.14 | -0.614 ± 0.14 |
| UUGUAGCAAUAUUACGUGUG | -1.28 ± 0.17 | -1.17 ± 0.11 |
| UUGUAGCAAUAUUACGUUGA | -2.95 ± 0.29 | -0.294 ± 0.19 |
| UUGUAGCAAUAUUACGUUGC |  | -2.29 ± 0.46 |
| UUGUAGCAAUAUUACGUUUC | -3.69 ± 0.46 |  |
| UUUAAGCAAUAUUACGAAAA | -0.789 ± 0.19 | -1.33 ± 0.2 |
